Target: cerulean-tagged CaM (Cer-CaMWT) (UniProt P0DP23 1-149)
Assay: FRET or BRET

Kd: ~2300 nM
B1: Venus-tagged CaV1.1 CI (Ven-CaV1.1 CI) (domain or fragment)
chain: not shown

Reference: publication PMC6080896 (The Journal of General Physiology, 2018)
